From publication PMC4156411

Assays:
Test in all cases: ELASA
Conditions in all cases: ELASA: VLPs 3 ug/ml coated, blocked with 5% skim milk in PBST plus unrelated DNA, 1 uM biotinylated aptamer (10 nM-2 uM for Kd), 1 h at RT, PBST washes
[1] = test system: GI.4 VLP, major capsid protein (Human norovirus GI.4)
[2] = test system: GI.6 VLP, major capsid protein (Human norovirus GI.6)
[3] = test system: GI.7 VLP, major capsid protein (Human norovirus GI.7)
[4] = test system: GI.8 VLP, major capsid protein (Human norovirus GI.8)
[5] = test system: GII.1 VLP, major capsid protein (Human norovirus GII.1)
[6] = test system: GII.12 VLP, major capsid protein (Human norovirus GII.12)
[7] = test system: GII.17 VLP, major capsid protein (Human norovirus GII.17)
[8] = target: T1, GII.2 (SMV) VLP, major capsid protein (Human norovirus GII.2 (Snow Mountain virus)) (UniProt K7X601)
T1 sequence: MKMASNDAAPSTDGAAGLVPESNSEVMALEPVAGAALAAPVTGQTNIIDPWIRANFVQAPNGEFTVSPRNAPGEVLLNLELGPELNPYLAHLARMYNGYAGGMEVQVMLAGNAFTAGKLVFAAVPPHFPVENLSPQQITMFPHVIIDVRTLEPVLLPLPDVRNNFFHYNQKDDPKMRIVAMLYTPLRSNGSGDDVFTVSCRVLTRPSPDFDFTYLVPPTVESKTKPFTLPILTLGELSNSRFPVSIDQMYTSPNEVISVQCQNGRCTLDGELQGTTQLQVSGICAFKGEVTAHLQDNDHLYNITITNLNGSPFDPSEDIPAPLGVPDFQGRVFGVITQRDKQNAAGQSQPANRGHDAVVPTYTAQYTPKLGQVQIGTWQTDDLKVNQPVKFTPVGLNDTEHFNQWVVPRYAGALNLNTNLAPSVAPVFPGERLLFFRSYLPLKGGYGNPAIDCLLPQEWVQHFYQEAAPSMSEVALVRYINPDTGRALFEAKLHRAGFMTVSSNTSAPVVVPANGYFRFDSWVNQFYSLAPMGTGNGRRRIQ

[9] = test system: GII.3 VLP, major capsid protein (Human norovirus GII.3)
[10] = test system: GII.4 (Grimsby) VLP, major capsid protein (Human norovirus GII.4 (Grimsby virus))
[11] = test system: GII.4 (Houston) VLP, major capsid protein (Human norovirus GII.4 (Houston))
[12] = test system: GII.6 VLP, major capsid protein (Human norovirus GII.6)
[13] = test system: GII.7 VLP, major capsid protein (Human norovirus GII.7)

Row | Sequence | binding signal [1] [T/N ratio] | binding signal [2] [T/N ratio] | binding signal [3] [T/N ratio] | binding signal [4] [T/N ratio] | binding signal [5] [T/N ratio] | binding signal [6] [T/N ratio] | binding signal [7] [T/N ratio] | Kd [8] [nM] | binding signal [8] [T/N ratio] | binding signal [9] [T/N ratio] | binding signal [10] [T/N ratio] | binding signal [11] [T/N ratio] | binding signal [12] [T/N ratio] | binding signal [13] [T/N ratio]
1 | AGTATACGTATTACCTGCAGCCACCAGTGTGTTGAGGTTTGAGCACACTGATAGAGTGTCACGATATCTCGGAGATCTTGC [SMV-19] | 1.7 | 3.7 | 10.3 | 1.7 | 7.1 | 1.5 | 3 | 191 | 12.9 | 1.7 | 9.6 | 12.5 | 1.8 | 4
2 | AGTATACGTATTACCTGCAGCCATCTGTGTGAAGACTATATGGCGCTCACATATTTCTTTCCGATATCTCGGAGATCTTGC [SMV-25] | 5.6 | 2.4 | 3.5 | 6.2 | 9.4 | 1.9 | 2 | 232 | 12.4 | 5.4 | 10.4 | 11 | 7.3 | 9.1
3 | AGTATACGTATTACCTGCAGCCCATGTTTTGTAGGTGTAATAGGTCATGTTAGGGTTTCTGCGATATCTCGGAGATCTTGC [SMV-21] | 4.3 | 3.8 | 8.1 | 4.6 | 8.6 | 6.6 | 12.2 | 101 | 18.1 | 11.8 | 6.4 | 11.3 | 3 | 13.5
4 | AGTATACGTATTACCTGCAGCTGACCGAGTGTCTGGTCATTTTCGATGTCTGTTGTTAGGCCGATATCTCGGAGATCTTGC [SMV-26] | 1.1 | 1.5 | 1.8 | 1.2 | 2.1 | 2.4 | 1.3 | 281 | 4.1 | 2.4 | 3.2 | 2.8 | 2.8 | 2.8
